Measurements from article PMC12915166 (2025).

T1: HA-1 (HA-1H allele), encoded by ARHGAP45 peptide on HLA-A*02:06 (human)
T1 peptide: VLHDDLLEA

T2: HA-2 (HA-2V allele), encoded by MYO1G peptide on HLA-A*02:01 (human)
T2 peptide: YIGEVLVSV


Legend:
[1] = biological target: T1, HA-1 (HA-1H allele), encoded by …; assay: activation reporter or marker
[2] = biological target: T2, HA-2 (HA-2V allele), encoded by MYO1G …

Binder	binding result [1]	EC50 of peptide [2] [nM]
anti-HA-1H TCR clone 7 (TCR) alpha TRAV3 TRAJ40 CDR3: AVRAPTSGTYKYI beta TRBV7-9 TRBJ2-1 CDR3: ASSLVSGNEQF	recognises	
anti-HA-2V TCR clone 7 (TCR) alpha TRAV21 TRAJ42 CDR3: AVRSGYGGSQGNL beta TRBV7-8 TRBJ2-5 CDR3: ASSLAGGSLQETQY		0.7
anti-HA-2V TCR clone 6 (TCR) alpha TRAV38-2DV8 TRAJ34 CDR3: AYRRFYNTDKLI beta TRBV19 TRBJ1-1 CDR3: ASRSAGYAEAF		21
